For one assay, the target named is HLA-B*07:02. Put plainly: IEDB peptide-MHC binding, purified MHC/competitive/radioactivity; filed as Kd, often an IC50 or EC50 that approximates it; ≥ and ≤ were set here for values at or beyond the usual limits of such assays.
The target in the next assay is HLA-B*35:01. The assay is described as above.
A further assay concerns the target HLA-B*51:01. The assay is described as above.
For the next assay, the target named is HLA-B*53:01. The assay is described as above.
The target in a further assay is HLA-B*54:01. The description is as above.
Assay [1] has as its target HLA-B*18:01. The description is as above.
The next assay addresses HLA-B*40:01. The assay is described as above.
In the next assay the target is HLA-B*40:02. The description is as above.
Another assay has as its target HLA-B*44:02. The description is as above.
Another assay addresses HLA-B*44:03. The assay is described as above.
The target in another assay is HLA-B*45:01. Described as above.
The target in assay [2] is HLA-B*18:01. Put plainly: IEDB peptide-MHC binding, purified MHC/direct/fluorescence; filed as Kd, often an IC50 or EC50 that approximates it; ≥ and ≤ were set here for values at or beyond the usual limits of such assays. The conditions noted are these: source organism: dengue virus type 1.
The mark [3] stands for this setting: source organism: Vaccinia virus WR.
Setting [4] is: source organism: SARS coronavirus Tor2.
[5] abbreviates: source organism: Mammarenavirus machupoense.
Where [6] appears, read: source organism: Mammarenavirus guanaritoense.
[7] abbreviates: source organism: Dengue virus 1 Brazil/97-11/1997.
[8] abbreviates: source organism: Lymphocytic choriomeningitis virus (strain Armstrong).

For MPVETLFGSY, the equilibrium dissociation constant (Kd) is ≥ 44000 nM in the assay with HLA-B*07:02 (setting [3]); 3.28 nM with HLA-B*35:01 (setting [3]); ≥ 69600 nM with HLA-B*51:01 (setting [3]); 2.28 nM in the assay with HLA-B*53:01 (setting [3]); 106 nM with HLA-B*54:01 (setting [3]).
Take STFVSAARQG: the Kd in the assay with HLA-B*18:01 [1] (setting [4]) was found to be 8680 nM; with HLA-B*40:01 (setting [4]), 8590 nM; with HLA-B*40:02 (setting [4]), 535 nM; with HLA-B*44:02 (setting [4]) it was 237 nM; with HLA-B*44:03 (setting [4]), 394 nM; with HLA-B*45:01 (setting [4]), 2010 nM.
On to YEQVVMDYL, for which the Kd in the assay with HLA-B*18:01 [1] (setting [4]) came out at 349 nM; with HLA-B*40:01 (setting [4]), 0.609 nM; in the assay with HLA-B*40:02 (setting [4]), 30.2 nM; with HLA-B*44:02 (setting [4]), 371 nM; with HLA-B*44:03 (setting [4]), 298 nM; with HLA-B*45:01 (setting [4]), 3780 nM.
As for PPFTQHLLNI, the Kd in the assay with HLA-B*07:02 (setting [3]) is ≥ 69600 nM; with HLA-B*35:01 (setting [3]) it was ≥ 69900 nM; with HLA-B*51:01 (setting [3]) it was 12500 nM; with HLA-B*53:01 (setting [3]) it was ≥ 20900 nM; with HLA-B*54:01 (setting [3]), ≥ 69900 nM.
For the sequence MPILTLTRAL, the Kd with HLA-B*07:02 (setting [4]) was 9.46 nM; in the assay with HLA-B*35:01 (setting [4]), 13.7 nM; with HLA-B*51:01 (setting [4]), 8.24 nM; in the assay with HLA-B*53:01 (setting [4]), 202 nM; in the assay with HLA-B*54:01 (setting [4]) it was 85.4 nM.
FPLCANGQVF: the Kd with HLA-B*07:02 (setting [4]) was found to be 87.1 nM; with HLA-B*35:01 (setting [4]) it was 1.84 nM; in the assay with HLA-B*51:01 (setting [4]), 10.6 nM; in the assay with HLA-B*53:01 (setting [4]), 1.94 nM; in the assay with HLA-B*54:01 (setting [4]) it was 358 nM.
Consider KPESRPFDLI, for which the dissociation constant Kd with HLA-B*07:02 (setting [3]) was 1380 nM; with HLA-B*35:01 (setting [3]), ≥ 69900 nM; with HLA-B*51:01 (setting [3]), ≥ 69600 nM; in the assay with HLA-B*53:01 (setting [3]), 18600 nM; with HLA-B*54:01 (setting [3]), 18500 nM.
In the case of QEAYEQAVA, the Kd was 3870 nM with HLA-B*18:01 [1] (setting [4]); ≥ 26000 nM with HLA-B*40:01 (setting [4]); 1200 nM with HLA-B*40:02 (setting [4]); 17300 nM with HLA-B*44:02 (setting [4]); 6860 nM in the assay with HLA-B*44:03 (setting [4]); 14.9 nM with HLA-B*45:01 (setting [4]).
For AEAAVKPLL, the Kd with HLA-B*18:01 [1] (setting [4]) was ≥ 77500 nM; with HLA-B*40:01 (setting [4]), 8.43 nM; in the assay with HLA-B*40:02 (setting [4]), 19500 nM; in the assay with HLA-B*44:02 (setting [4]) it was 60.8 nM; with HLA-B*44:03 (setting [4]), 53.6 nM; with HLA-B*45:01 (setting [4]) it was 152 nM.
For the sequence EEPAALLPLS, the Kd is 11500 nM with HLA-B*18:01 [1] (setting [5]); 12000 nM with HLA-B*40:01 (setting [5]); 859 nM in the assay with HLA-B*40:02 (setting [5]); 3410 nM in the assay with HLA-B*44:02 (setting [5]); ≥ 20000 nM with HLA-B*44:03 (setting [5]); 211 nM in the assay with HLA-B*45:01 (setting [5]).
For the sequence DESALNISGY, the equilibrium dissociation constant (Kd) with HLA-B*18:01 [1] (setting [6]) was 22.5 nM; in the assay with HLA-B*40:01 (setting [6]), ≥ 69500 nM; in the assay with HLA-B*40:02 (setting [6]), ≥ 29200 nM; with HLA-B*44:02 (setting [6]) it was 10900 nM; with HLA-B*44:03 (setting [6]), 3370 nM; with HLA-B*45:01 (setting [6]), ≥ 70000 nM.
As for SPNLAWPLIV, the Kd is 123 nM in the assay with HLA-B*07:02 (setting [4]); 887 nM with HLA-B*35:01 (setting [4]); 2790 nM with HLA-B*51:01 (setting [4]); 1660 nM with HLA-B*53:01 (setting [4]); 556 nM in the assay with HLA-B*54:01 (setting [4]).
Turning to EDFLLMYEM, the Kd was found to be 92.1 nM with HLA-B*18:01 [1] (setting [6]); 16900 nM with HLA-B*40:01 (setting [6]); 5.67 nM with HLA-B*40:02 (setting [6]); 582 nM with HLA-B*44:02 (setting [6]); 2550 nM in the assay with HLA-B*44:03 (setting [6]); 4640 nM in the assay with HLA-B*45:01 (setting [6]).
In the case of MEVQLIRQM, the values for the dissociation constant (Kd) with HLA-B*18:01 [2], with HLA-B*44:02 (setting [7]) and in the assay with HLA-B*44:03 (setting [7]) were 1.5 nM, 17.3 nM and 18.9 nM, respectively.
As to LPVNVAFEL, the equilibrium dissociation constant (Kd) in the assay with HLA-B*35:01 (setting [4]) was 1.89 nM; with HLA-B*51:01 (setting [4]) it was 1.14 nM; with HLA-B*53:01 (setting [4]) it was 10.4 nM; in the assay with HLA-B*54:01 (setting [4]), 420 nM.
With EDQLLPFMS, the dissociation constant (Kd) with HLA-B*18:01 [1] (setting [8]) was ≥ 55500 nM; with HLA-B*40:01 (setting [8]), ≥ 59300 nM; with HLA-B*40:02 (setting [8]) it was ≥ 65400 nM; with HLA-B*44:02 (setting [8]) it was ≥ 35200 nM; with HLA-B*44:03 (setting [8]), ≥ 78100 nM; in the assay with HLA-B*45:01 (setting [8]) it was 3730 nM.
For the sequence YENAFLPFT, the Kd is 112 nM with HLA-B*18:01 [1] (setting [4]); 6120 nM in the assay with HLA-B*40:01 (setting [4]); 36.4 nM with HLA-B*40:02 (setting [4]); 1650 nM with HLA-B*44:02 (setting [4]); 857 nM with HLA-B*44:03 (setting [4]); 93.6 nM in the assay with HLA-B*45:01 (setting [4]).

The Kd is a measure of binding affinity in units of concentration.

The values are drawn from the Immune Epitope Database (IEDB).
